Test results published in US20230382970A1 (HANMI PHARM, published 2023).
Bridge positions count the residues as written; N and C are the ends. Square brackets hold non-standard residues; d marks the D form. Ends that are not written are not given here. * marks the point of attachment. Desaminotyrosyl = O=C(CCc1ccc(O)cc1)*; Nle = CCCC[C@H](N)C(=O)O; Aib = CC(C)(N)C(=O)O

Tests used:
human GLP-1 receptor = human GLP-1 receptor (human, UniProt P43220 24-463); assay: cell-based or functional assay
human GIP receptor = target: T1, human GIP receptor (human, UniProt P48546 22-466); assay: cell-based or functional assay
T1 sequence (looked up): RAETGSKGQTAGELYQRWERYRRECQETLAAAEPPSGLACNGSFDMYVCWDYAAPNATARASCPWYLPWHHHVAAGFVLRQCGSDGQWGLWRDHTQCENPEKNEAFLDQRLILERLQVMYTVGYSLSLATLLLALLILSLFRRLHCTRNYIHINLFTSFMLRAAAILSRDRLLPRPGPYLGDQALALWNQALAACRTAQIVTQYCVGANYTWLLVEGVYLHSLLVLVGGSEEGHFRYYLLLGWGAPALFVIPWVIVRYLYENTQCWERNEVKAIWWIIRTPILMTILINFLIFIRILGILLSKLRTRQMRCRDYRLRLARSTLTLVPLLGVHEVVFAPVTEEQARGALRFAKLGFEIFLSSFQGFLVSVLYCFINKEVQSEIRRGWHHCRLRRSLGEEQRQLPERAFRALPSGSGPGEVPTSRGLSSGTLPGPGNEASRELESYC

In the case of Y[Aib]EGTFTSDYSI[Aib]LDKQHA[Aib]AFVQWLIAGGPSSGAPPPSC [GLP-1/GIP dual agonist of SEQ ID NO: 35], the “In vitro activity (%) compared to native-type peptide, vs human GLP-1 (cAMP EC50, human GLP-1 receptor-expressing CHO cells)” value (human GLP-1 receptor) is reported as 9.6% and the “In vitro activity (%) compared to native-type peptide, vs human GIP (cAMP EC50, human GIP receptor-expressing CHO cells)” value (human GIP receptor) is reported as 64.2%.

Y[Aib]EGTFTSDYSKYLDEIRAKDFVQWLLDHHPSSGQPPPC (bridge 16-20) [GLP-1/GIP dual agonist of SEQ ID NO: 4] was tested, and the “In vitro activity (%) compared to native-type peptide, vs human GLP-1 (cAMP EC50, human GLP-1 receptor-expressing CHO cells)” value (human GLP-1 receptor) was 1.9% and the “In vitro activity (%) compared to native-type peptide, vs human GIP (cAMP EC50, human GIP receptor-expressing CHO cells)” value (human GIP receptor) was 18.5%.

With Y[Aib]EGTFTSDYSI[Aib]LDKQAQQAFVQWLIAGGPSSGAPPPSC [GLP-1/GIP dual agonist of SEQ ID NO: 36] the “In vitro activity (%) compared to native-type peptide, vs human GLP-1 (cAMP EC50, human GLP-1 receptor-expressing CHO cells)” value (human GLP-1 receptor) was 79.9% and the “In vitro activity (%) compared to native-type peptide, vs human GIP (cAMP EC50, human GIP receptor-expressing CHO cells)” value (human GIP receptor) was 217%.

For Y[Aib]EGTFTSDYSI[Aib]LDKQAQQ[Aib]FVQWLIAGGPSSGAPPPSC [GLP-1/GIP dual agonist of SEQ ID NO: 37], the “In vitro activity (%) compared to native-type peptide, vs human GLP-1 (cAMP EC50, human GLP-1 receptor-expressing CHO cells)” value (human GLP-1 receptor) was 45.2% and the “In vitro activity (%) compared to native-type peptide, vs human GIP (cAMP EC50, human GIP receptor-expressing CHO cells)” value (human GIP receptor) was 174%.

In the case of Y[Aib]EGTFTSDYSI[Aib]LEKQAQQDFVNWLLAGGPSSGAPPPSC [GLP-1/GIP dual agonist of SEQ ID NO: 38], the “In vitro activity (%) compared to native-type peptide, vs human GLP-1 (cAMP EC50, human GLP-1 receptor-expressing CHO cells)” value (human GLP-1 receptor) is reported as 14.3% and the “In vitro activity (%) compared to native-type peptide, vs human GIP (cAMP EC50, human GIP receptor-expressing CHO cells)” value (human GIP receptor) is reported as 216%.

Y[Aib]EGTFTSDYSIALEKQAA[Aib]DFVNWLLAGGPSSGAPPPSC [GLP-1/GIP dual agonist of SEQ ID NO: 39] was tested, and the “In vitro activity (%) compared to native-type peptide, vs human GLP-1 (cAMP EC50, human GLP-1 receptor-expressing CHO cells)” value (human GLP-1 receptor) was 15.9% and the “In vitro activity (%) compared to native-type peptide, vs human GIP (cAMP EC50, human GIP receptor-expressing CHO cells)” value (human GIP receptor) was 144%.

For Y[Aib]EGTFTSDYSIALEKQAQRDFVNWLLAGGPSSGAPPPSC [GLP-1/GIP dual agonist of SEQ ID NO: 40], the “In vitro activity (%) compared to native-type peptide, vs human GLP-1 (cAMP EC50, human GLP-1 receptor-expressing CHO cells)” value (human GLP-1 receptor) was 97.7% and the “In vitro activity (%) compared to native-type peptide, vs human GIP (cAMP EC50, human GIP receptor-expressing CHO cells)” value (human GIP receptor) was 181%.

[Desaminotyrosyl][Aib]EGTFTSDYSI[Aib]LDAQAA[Aib]AFVQWLIAGGPSSGAPPPSK [GLP-1/GIP dual agonist of SEQ ID NO: 41] was tested, and the “In vitro activity (%) compared to native-type peptide, vs human GLP-1 (cAMP EC50, human GLP-1 receptor-expressing CHO cells)” value (human GLP-1 receptor) was 117% and the “In vitro activity (%) compared to native-type peptide, vs human GIP (cAMP EC50, human GIP receptor-expressing CHO cells)” value (human GIP receptor) was 58.7%.

With [Desaminotyrosyl][Aib]EGTFTSDYSI[Aib]LD[Nle]QAA[Aib]AFVQWLIAGGPSSGAPPPSK [GLP-1/GIP dual agonist of SEQ ID NO: 42] the “In vitro activity (%) compared to native-type peptide, vs human GLP-1 (cAMP EC50, human GLP-1 receptor-expressing CHO cells)” value (human GLP-1 receptor) was 69.5% and the “In vitro activity (%) compared to native-type peptide, vs human GIP (cAMP EC50, human GIP receptor-expressing CHO cells)” value (human GIP receptor) was 35.9%.

For [Desaminotyrosyl][Aib]EGTFISDYSIALEAQAQQDFVNWLLAGGPSSGAPPPSK [GLP-1/GIP dual agonist of SEQ ID NO: 43], the “In vitro activity (%) compared to native-type peptide, vs human GLP-1 (cAMP EC50, human GLP-1 receptor-expressing CHO cells)” value (human GLP-1 receptor) was 1.2% and the “In vitro activity (%) compared to native-type peptide, vs human GIP (cAMP EC50, human GIP receptor-expressing CHO cells)” value (human GIP receptor) was 109%.

With [Desaminotyrosyl][Aib]EGTFISDYSIALE[Nle]QAQQDFVNWLLAGGPSSGAPPPSK [GLP-1/GIP dual agonist of SEQ ID NO: 44] the “In vitro activity (%) compared to native-type peptide, vs human GLP-1 (cAMP EC50, human GLP-1 receptor-expressing CHO cells)” value (human GLP-1 receptor) was 1.4% and the “In vitro activity (%) compared to native-type peptide, vs human GIP (cAMP EC50, human GIP receptor-expressing CHO cells)” value (human GIP receptor) was 74.2%.
